Consider 1 substance from patent US20130040994A1.

The assay concerns the target quenched fluorescein gelatin substrate (DQ gelatin, Invitrogen D12054).

Chain of catalytic rat MMP9 (80 kD active MMP9) (enzyme) (P50282 108-708 limits assumed): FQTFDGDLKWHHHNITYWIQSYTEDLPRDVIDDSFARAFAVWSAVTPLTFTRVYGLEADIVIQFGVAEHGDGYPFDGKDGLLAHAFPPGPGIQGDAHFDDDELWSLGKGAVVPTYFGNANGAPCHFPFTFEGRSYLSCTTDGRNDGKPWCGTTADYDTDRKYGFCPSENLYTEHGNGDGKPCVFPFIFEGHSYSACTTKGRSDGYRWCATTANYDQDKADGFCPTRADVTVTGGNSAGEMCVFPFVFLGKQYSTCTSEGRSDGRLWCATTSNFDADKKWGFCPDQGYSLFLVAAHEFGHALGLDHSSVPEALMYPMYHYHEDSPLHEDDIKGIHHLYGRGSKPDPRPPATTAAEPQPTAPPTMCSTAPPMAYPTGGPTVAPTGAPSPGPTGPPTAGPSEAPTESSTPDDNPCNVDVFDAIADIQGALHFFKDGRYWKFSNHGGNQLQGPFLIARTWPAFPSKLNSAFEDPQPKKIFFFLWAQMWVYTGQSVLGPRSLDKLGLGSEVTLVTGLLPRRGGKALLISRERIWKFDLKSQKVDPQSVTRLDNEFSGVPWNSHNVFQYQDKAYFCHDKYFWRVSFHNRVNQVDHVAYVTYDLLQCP

Regarding “catalytic rat MMP9 (80 kD active MMP9) (enzyme)”, the gelatinase activity by in situ zymography, Intensity (RLU × 10^6), Mean is 1.09e+08 RLU.
